Data published in article PMC10846153.

System: T1, OxyR (Reut_A2805) (Cupriavidus pinatubonensis), ORF:7651349a
T1 sequence: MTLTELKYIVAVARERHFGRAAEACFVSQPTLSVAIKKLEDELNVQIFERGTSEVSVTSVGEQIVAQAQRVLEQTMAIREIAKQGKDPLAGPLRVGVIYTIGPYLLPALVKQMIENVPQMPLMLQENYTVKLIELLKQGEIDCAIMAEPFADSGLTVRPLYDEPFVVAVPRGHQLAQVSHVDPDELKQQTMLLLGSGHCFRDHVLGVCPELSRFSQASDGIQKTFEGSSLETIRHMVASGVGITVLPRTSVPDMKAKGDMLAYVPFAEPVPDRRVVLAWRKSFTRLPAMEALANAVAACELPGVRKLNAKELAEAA
Assay: EMSA
Conditions: EMSA: 20 mM Tris pH 7.4, 4 mM MgCl2, 100 mM NaCl, 10% glycerol; 20 min at room temperature; 6% native PAGE with 5% glycerol in 0.5x TBE

## AAATGCATCGCTCTCAGAATACCCAAAAATGAGCAATTCGATGCCATCGACTTTCGCGTTTCTGGCAACTTTGCGCGAACTGTAGAAAATACCGGATTACAGGTATTGTCCTGTCCAAGTCGCACAGCGTAAATTTCGCCTGACTTCCGTTGCGCAACCAACAGAAACACAAAGATT (double strand) [PT6SS1]
  binding: binds
